Measured values as given in article PMC5799870.

Target: soluble human FcRn (human) (UniProt P55899)
Assay: SPR
Conditions: natural protein; remark: other sources report otherwise

UniProt P55899, sequence (P55899 24-297, chain 1 of 2): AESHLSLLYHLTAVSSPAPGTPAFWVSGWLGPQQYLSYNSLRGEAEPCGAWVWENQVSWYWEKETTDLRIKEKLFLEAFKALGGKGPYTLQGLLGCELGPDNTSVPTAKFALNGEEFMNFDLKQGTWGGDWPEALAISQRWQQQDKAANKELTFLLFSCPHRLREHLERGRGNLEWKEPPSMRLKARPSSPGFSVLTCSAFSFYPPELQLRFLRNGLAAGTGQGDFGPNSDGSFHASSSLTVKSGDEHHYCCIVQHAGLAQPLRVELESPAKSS
UniProt P55899, sequence (partner, as listed by the source, chain 2 of 2): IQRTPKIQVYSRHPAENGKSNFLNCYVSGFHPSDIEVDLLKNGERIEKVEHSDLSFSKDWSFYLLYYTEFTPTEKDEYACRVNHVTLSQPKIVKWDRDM

Q: With “Recombumin-NHBn34 (from UniProt P02768 25-609)” as the substance, how does the Kd read?
A: 13.2 µM
